Results taken from patent US20240067748A1 (NONA BIOSCIENCES SUZHOU, published 2024).
Where a chain is given by its changes, count along the chain named.

T1: human Trop2 on cells (human, UniProt P09758 27-323)
T1 sequence (looked up): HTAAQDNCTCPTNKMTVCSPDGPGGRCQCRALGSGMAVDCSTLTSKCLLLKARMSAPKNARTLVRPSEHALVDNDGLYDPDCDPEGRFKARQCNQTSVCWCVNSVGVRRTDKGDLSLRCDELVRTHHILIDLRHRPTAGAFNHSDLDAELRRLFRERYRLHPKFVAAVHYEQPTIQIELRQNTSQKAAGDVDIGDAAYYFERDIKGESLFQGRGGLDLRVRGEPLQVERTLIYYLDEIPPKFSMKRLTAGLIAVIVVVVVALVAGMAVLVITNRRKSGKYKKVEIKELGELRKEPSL

T2: monkey Trop2 on CHO-K1 cells (monkey, UniProt A0A2K5UE71 27-323)
T2 construct: also called CHO-K1/monkey Trop2
T2 sequence: T1 sequence (looked up) with M36V, K46E, S67N, I204V, M266V, T272S

T3: human TROP2 protein (Sino Biological, #10428-H08H) (human, UniProt P09758 27-274)
T3 construct: bought protein; also called human Trop2 protein antigen (His tag); not shown: His tag
T3 sequence (looked up): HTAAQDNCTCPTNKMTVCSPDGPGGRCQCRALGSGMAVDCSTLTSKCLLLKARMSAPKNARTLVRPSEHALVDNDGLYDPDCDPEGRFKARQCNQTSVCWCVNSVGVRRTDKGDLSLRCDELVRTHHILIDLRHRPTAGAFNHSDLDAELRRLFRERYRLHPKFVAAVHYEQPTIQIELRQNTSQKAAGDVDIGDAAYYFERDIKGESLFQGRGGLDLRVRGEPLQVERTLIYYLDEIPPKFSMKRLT

T4: monkey Trop2 protein (Sino Biological, #90893-C08H) (monkey, UniProt A0A2K5UE71 27-274)
T4 construct: bought protein; also called monkey Trop2 protein antigen (His tag)
T4 sequence: T3 sequence (looked up) with M36V, K46E, S67N, I204V

B1: comparative example 2 antibody Tab (hRS7) (antibody, human IgG1, kappa, V domains shown)
VH: QVQLQQSGSELKKPGASVKVSCKASGYTFTNYGMNWVKQAPGQGLKWMGWINTYTGEPTYTDDFKGRFAFSLDTSVSTAYLQISSLKADDTAVYFCARGGFGSSYWYFDVWGQGSLVTVSS
VL: DIQLTQSPSSLSASVGDRVSITCKASQDVSIAVAWYQQKPGKAPKLLIYSASYRYTGVPDRFSGSGSGTDFTLTISSLQPEDFAVYYCQQHYITPLTFGAGTKVEIKR
notes: prepared on the basis of sacituzumab govitecan (ChemPartner, #T07-001); naked antibody
B2: PR001165 (antibody, human IgG1, kappa, V domains shown)
VH: QVQLVESGGGVVQPGRSLRLSCEASGFTFSHYGMHWVRQAPGKGLEWVAVIWYDGIKTYYVESVKGRFTISRDNSKNTLNLQMNRLRAEDTAVYYCARDGGFGESNYYGLDVWGQGTTVTVSS
VL: DIQLTQSPSFLSASVGDRVTITCRASQGISSYLGWYQQKPGKAPKLLIYIASTLQSGVPSRFSGSGSGTEFTLTISSLQPEDFATYYCQQLNSYPYTFGQGTKLEIKR
notes: fully human IgG1/kappa; also called antibody No. (26)
B3: PR001142 (antibody, human IgG1, kappa, V domains shown)
VH: QVQLQESGPGLVKPSGTLSLTCAVSGDSISSNNWWSWVRQPPGKGLEWIGEIYPGGNPNYNPSLKSRVTISVDKSKNQFSLKLNSVTAADTAVYYCARGSGVISYFDYWGQGTLVTVSS
VL: DIQMTQSPSTLSASVGDRVTITCRASQSIGHWLAWYQQKPGKAPKLLIYKASSLESGVPSRFRGSGSGTEFTLTISSLQPDDFATYYCQQYSSYSPITFGQGSRLEIKR
notes: fully human IgG1/kappa; also called antibody No. (9)
B4: PR001166 (antibody, human IgG1, kappa, V domains shown)
VH: QVQLQESGPGLVKPSETLSLTCAVSGYSISSGYFWAWIRQPPGKGLEWIGSIYHSGRTHYNPSLKSRVIISLDTSKNQFSLKLRSVTAADSAVYYCAREGYASGSYYWGQGTLVTVSS
VL: EIVMTQSPATLSVSPGERATLSCRSSQSVNNYLAWFQQKPGQAPRLLIYDSSTRATGIPARFSGSGSGTEFTLTISSLQSEDFAFYFCQQYENWPLTFGGGTKVEIKR
notes: fully human IgG1/kappa; also called antibody No. (27)

Tests used:
human Trop2 on cells [1] = biological target: T1, human Trop2 on cells; experiment: cell-based or functional assay
human Trop2 on cells [2] = biological target: T1, human Trop2 on cells; experiment: flow cytometry on 293T-human Trop2 cells
Summary of the method: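 Cells at 1×10⁶/mL in PBS were incubated for 1 h, washed in PBS+0.5% BSA, then stained with Alexa Fluor 488 anti-human IgG for 1 h at 4 °C. Cell-bound fluorescence was measured by flow cytometry, with all steps on ice.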

[3] = biological target: T2, monkey Trop2 on CHO-K1 cells; experiment: flow cytometry on CHO-K1/monkey Trop2 cells
Protocol: CHO-K1/monkey Trop2 cells (Chempartner, Shanghai, China) and CHO-K1 blast cells were each digested with 3 mL of TrypLE, and the digestion was stopped with 7 mL of the corresponding medium. […] The cell solution was centrifuged, and the cells were washed once with PBS+0.5% BSA. […] The cells were washed once with PBS+0.5% BSA. The cells were incubated at 4° C. for 1 h in the dark with 100 μL of Alexa Fluor 488 goat anti-human IgG (Life technologies, #A-11013) diluted at 1:1000, and washed twice with PBS+0.5% BSA. The cells were resuspended in 200 μL of PBS+0.5% BSA. The suspension was centrifuged at 4° C. for 5 min at 2000 rpm and tested using a FACS verse flow cytometer or NovoCyte flow cytometer (ACEA Biosciences). All procedures were performed on ice.

[4] = biological target: T3, human TROP2 protein (Sino Biological, …); experiment: BLI epitope binning (Octet), biotinylated human Trop2 on SA sensor; row = primary antibody; competitor (secondary antibody, column): PR001165
Protocol: The biotinylated mixture after the incubation was washed three times with PBS and a Zeba centrifugal desalting column (Thermo Fisher, #89882) to remove excess biotin. The biotinylated Trop2 protein was captured by an SA sensor (Pall ForteBio, #18-5019) with the loading baseline set at 0.3 nm. The sensor was immersed in a well of assay buffer containing 50 nM primary antibody for 300 s. […] The binding assay was performed by comparing the binding of the secondary antibody to Trop2 in the presence of the primary antibody to the blocking of the primary antibody itself.

[5] = biological target: T4, monkey Trop2 protein (Sino Biological, …); experiment: BLI, Octet RED96; ratio against KD for human Trop2 protein
Summary of the method: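 Human or monkey Trop2 protein at 200 nM in PBS pH 7.4 with 0.1% BSA and 0.02% Tween 20 was loaded on the sensor. Association used 40 nM antibody for 3 min at 30° C, then dissociation ran 5 min in the same buffer. Signals were recorded in real time; KD, kon and koff were fitted.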

Row | Binder | ADCP (Donor A1925144#) EC50(nM), BxPC-3 + macrophages (human Trop2 on cells [1]) [nM] | ADCP (Donor A1925144#) Maximum phagocytosis % (human Trop2 on cells [1]) [%] | ADCP (Donor A1925144#) Minimum phagocytosis % (human Trop2 on cells [1]) [%] | ADCP (Donor A19143143#) EC50(nM), BxPC-3 + macrophages (human Trop2 on cells [1]) [nM] | ADCP (Donor A19143143#) Maximum phagocytosis % (human Trop2 on cells [1]) [%] | ADCP (Donor A19143143#) Minimum phagocytosis % (human Trop2 on cells [1]) [%] | EC50 (human Trop2 on cells [2]) [nM] | Maximum (MFI) (human Trop2 on cells [2]) | EC50 [3] [nM] | Maximum MFI value [3] [MFI] | Inhibition rate (%) [4] [%] | Top % (human Trop2 on cells [2]) [%] | fold lower EC50 than the reference antibody hRS7 (human Trop2 on cells [2]) [fold] | KD (monkey)/KD (human) [5]
1 | B1 | 0.125 | 14.8 | 1.72 | 0.208 | 44.8 | 1.04 | 0.753 | 6480 | 2.13 | 53100 | 92 | – | – | –
2 | B2 | 0.0683 | 12.5 | 2.25 | 0.178 | 42.7 | 1.37 | 0.414 | 6460 | – | – | 97.7 | 99.7 | – | –
3 | B3 | 0.0362 | 12 | 0.861 | 0.199 | 36.4 | 1.75 | 0.23 | 6510 | 2.1 | 51200 | 99.2 | 101 | ~3 | 0.81
4 | B4 | 0.0311 | 9.33 | 2.05 | 0.161 | 40.2 | 2.04 | 0.204 | 7050 | 1.97 | 51500 | 18.5 | 109 | ~3 | –
